Data published in paper PMC5498468, “Exposure to the Epstein–Barr Viral Antigen Latent Membrane Protein 1 Induces Myelin-Reactive Antibodies In Vivo” (Frontiers in Immunology, 2017).
No end group written: not given here.

Molecular target: T1, Bovine myelin basic protein (MBP) (bovine, UniProt P02687 1-169)
T1 construct: Myelin basic protein, bovine
Assay: ELISA + other: WB (methods) or immunoprecipitation (results); synthetic peptides with C-terminal Lys-biotin tested for binding of MBP and LMP1; one grade a pair for the two assays
Conditions: both partners purified

T1 sequence (P02687 whole entry): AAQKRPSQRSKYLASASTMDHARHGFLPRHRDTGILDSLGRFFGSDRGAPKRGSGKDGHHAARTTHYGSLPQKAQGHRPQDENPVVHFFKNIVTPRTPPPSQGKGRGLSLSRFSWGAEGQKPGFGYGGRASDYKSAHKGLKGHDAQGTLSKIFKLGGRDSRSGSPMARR

B1: Synthesized biotinylated peptide P3, TYGGTFTDYLYNWVK (Bio) (peptide)
peptide: TYGGTFTDYLYNWVK
modifications: also: C-terminal Lys-biotin
notes: source: synthetic peptide (Shanghai Ruifu Chemical Co., Ltd.)
B1: binds.
